Reference: paper PMC5806898

Legend:
CD8-CIMPR = CD8-CIMPR (UniProt P11717); test: co-IP; native immunoprecipitation with anti-CD8 and protein A-Sepharose from HeLa cells expressing CD8-CIMPR or CD8-sortilin (control: HeLa cells); western blot, bands quantified with IMAGEJ, 3 repeats
CD8-sortilin = CD8-sortilin (UniProt Q99523); test: as above

Sequence of UniProt P11717 (P11717 whole entry): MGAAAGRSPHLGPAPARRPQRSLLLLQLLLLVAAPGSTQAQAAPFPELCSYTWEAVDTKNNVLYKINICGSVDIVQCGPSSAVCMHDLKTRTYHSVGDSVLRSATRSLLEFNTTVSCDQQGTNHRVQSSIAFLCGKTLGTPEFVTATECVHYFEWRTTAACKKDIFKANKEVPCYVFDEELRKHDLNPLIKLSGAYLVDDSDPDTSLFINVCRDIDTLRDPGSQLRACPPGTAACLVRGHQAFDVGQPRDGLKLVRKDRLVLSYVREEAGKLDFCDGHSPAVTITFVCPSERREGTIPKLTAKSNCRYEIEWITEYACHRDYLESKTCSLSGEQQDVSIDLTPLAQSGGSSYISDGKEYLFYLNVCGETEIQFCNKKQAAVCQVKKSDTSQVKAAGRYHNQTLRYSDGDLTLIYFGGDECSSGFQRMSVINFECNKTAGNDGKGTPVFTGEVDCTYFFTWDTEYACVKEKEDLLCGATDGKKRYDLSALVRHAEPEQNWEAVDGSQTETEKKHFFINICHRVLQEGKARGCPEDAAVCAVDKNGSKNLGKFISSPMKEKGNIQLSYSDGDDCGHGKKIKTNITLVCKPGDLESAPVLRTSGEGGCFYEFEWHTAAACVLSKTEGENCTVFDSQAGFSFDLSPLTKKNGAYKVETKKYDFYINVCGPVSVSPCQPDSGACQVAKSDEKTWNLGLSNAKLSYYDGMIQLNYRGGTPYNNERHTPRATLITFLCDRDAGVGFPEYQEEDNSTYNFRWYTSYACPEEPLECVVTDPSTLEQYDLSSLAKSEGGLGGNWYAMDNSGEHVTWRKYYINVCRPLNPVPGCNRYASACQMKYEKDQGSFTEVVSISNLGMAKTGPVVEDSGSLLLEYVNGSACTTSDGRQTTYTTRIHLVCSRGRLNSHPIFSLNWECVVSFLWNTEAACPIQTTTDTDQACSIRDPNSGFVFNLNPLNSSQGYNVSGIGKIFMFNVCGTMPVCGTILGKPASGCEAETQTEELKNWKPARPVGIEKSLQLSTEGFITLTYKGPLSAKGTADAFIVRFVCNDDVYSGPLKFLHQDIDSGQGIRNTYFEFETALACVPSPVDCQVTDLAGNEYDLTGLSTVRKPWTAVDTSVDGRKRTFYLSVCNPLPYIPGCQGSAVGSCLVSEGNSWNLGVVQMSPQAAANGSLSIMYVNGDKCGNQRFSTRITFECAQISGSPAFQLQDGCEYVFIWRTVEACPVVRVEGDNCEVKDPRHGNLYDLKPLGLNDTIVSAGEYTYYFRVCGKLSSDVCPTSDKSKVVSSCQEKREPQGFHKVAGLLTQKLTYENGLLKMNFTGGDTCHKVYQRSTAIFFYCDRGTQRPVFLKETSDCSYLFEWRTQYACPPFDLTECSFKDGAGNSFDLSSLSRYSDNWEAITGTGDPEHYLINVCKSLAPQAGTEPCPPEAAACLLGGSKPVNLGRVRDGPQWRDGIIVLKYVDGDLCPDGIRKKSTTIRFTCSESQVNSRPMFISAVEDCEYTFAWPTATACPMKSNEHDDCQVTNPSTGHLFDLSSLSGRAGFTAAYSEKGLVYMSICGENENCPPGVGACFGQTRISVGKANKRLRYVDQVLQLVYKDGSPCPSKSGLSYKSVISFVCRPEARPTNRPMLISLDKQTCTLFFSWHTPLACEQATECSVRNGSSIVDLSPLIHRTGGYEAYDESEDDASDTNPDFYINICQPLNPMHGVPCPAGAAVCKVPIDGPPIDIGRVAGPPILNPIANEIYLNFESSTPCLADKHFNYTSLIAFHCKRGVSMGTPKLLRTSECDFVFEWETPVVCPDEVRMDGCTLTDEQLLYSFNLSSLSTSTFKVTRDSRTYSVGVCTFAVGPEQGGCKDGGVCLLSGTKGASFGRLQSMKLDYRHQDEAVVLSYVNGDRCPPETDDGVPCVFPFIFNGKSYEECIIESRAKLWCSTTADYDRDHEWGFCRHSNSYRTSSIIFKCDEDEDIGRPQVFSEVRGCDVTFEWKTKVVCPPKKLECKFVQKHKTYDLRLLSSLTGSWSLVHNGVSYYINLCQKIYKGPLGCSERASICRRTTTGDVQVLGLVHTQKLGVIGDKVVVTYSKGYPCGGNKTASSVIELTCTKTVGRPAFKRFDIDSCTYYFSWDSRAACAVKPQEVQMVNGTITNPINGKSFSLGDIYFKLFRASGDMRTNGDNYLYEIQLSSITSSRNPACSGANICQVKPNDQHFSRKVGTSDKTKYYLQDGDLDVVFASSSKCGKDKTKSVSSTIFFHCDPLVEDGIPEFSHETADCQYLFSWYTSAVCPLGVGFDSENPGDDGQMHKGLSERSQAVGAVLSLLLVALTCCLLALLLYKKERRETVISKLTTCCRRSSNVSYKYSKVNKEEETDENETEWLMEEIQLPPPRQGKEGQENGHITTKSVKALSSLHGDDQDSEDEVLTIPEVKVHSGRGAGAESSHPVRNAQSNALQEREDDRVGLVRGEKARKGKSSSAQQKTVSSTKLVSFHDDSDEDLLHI

| Molecule | percent of input pulled down (CD8-CIMPR) [%] | percent of input pulled down (CD8-sortilin) [%] |
| --- | --- | --- |
| AP-1 γ (from UniProt O43747 1-822) (natural protein) | 0.1 | 0.05 |
| SPG15 (from UniProt Q68DK2 1-2539) (natural protein) | 0.15 | 0.15 |
| AP-5 ζ subunit (natural protein) MFSAGAESLLHQAREIQDEELKKFCSRICKLLQAEDLGPDTLDSLQRLFLIISATKYSRRLEKTCVDLLQATLGLPACPEQLQVLCAAILREMSPSDSLSLAWDHTQNSRQLSLVASVLLAQGDRNEEVRAVGQGVLRALESRQPEGPSLRHLLPVMAKVVVLSPGTLQEDQATLLSKRLVDWLRYASLQQGLPHSGGFFSTPRARQPGPVTEVDGAVATDFFTVLSSGHRFTDDQWLNVQAFSMLRAWLLHSGPEGPGTLDTDDRSEQEGSTLSVISATSSAGRLLPPRERLREVAFEYCQRLIEQSNRRALRKGDSDLQKACLVEAVLVLDVLCRQDPSFLYRSLSCLKALHGRVRGDPASVRVLLPLAHFFLSHGEAAAVDSEAVYQHLFTRIPVEQFHSPMLAFEFIQFCRDNLHLFSGHLSTLRLSFPNLFKFLAWNSPPLTSEFVALLPALVDAGTALEMLHALLDLPCLTAVLDLQLRSAPAASERPLWDTSLRAPSCLEAFRDPQFQGLFQYLLRPKASGATERLAPLHQLLQPMAGCARVAQCAQAVPTLLQAFFSAVTQVADGSLINQLALLLLGRSDSLYPAPGYAAGVHSVLSSQFLALCTLKPSLVVELARDLLEFLGSVNGLCSRASLVTSVVWAIGEYLSVTYDRRCTVEQINKFFEALEALLFEVTQCRPSAALPRCPPQVVTVLMTTLTKLASRSQDLIPRASLLLSKMRTLAHSPATSSTHSEEGAEAIRTRATELLTLLKMPSVAQFVLTPSTEVCSPRYHRDANTALPLALRTVSRLVEREAGLMPG | 0.08 | 0.23 |
